In patent publication US20150037348A1 (AbbVie / Abbott, published 2015):
Where a chain is given by its changes, count along the chain named. Where “and” joins values, the source holds several entries; their conditions need not be identical. Identical values can stand only once. Like-named read-outs stand apart in the source and are kept apart here. Each block holds one binder with its values, some of them ahead of it.

Tests used:
[1] = target: T1, recombinant human IL-12 (rhIL-12) (human, UniProt P29459 23-219; P29460 23-328); experiment: receptor binding assay, 125I-hIL-12 on PHA blasts
T1 construct: disulfide-linked p35/p40 heterodimer (p70); also called IL-12 p70; rec. human IL12
T1 sequence (looked up) 1: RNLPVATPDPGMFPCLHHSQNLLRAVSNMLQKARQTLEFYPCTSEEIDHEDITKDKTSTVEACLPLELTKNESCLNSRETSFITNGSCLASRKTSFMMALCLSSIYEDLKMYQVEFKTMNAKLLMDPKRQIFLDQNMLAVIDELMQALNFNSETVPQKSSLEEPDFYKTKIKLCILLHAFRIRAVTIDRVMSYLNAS
T1 sequence (looked up) 2: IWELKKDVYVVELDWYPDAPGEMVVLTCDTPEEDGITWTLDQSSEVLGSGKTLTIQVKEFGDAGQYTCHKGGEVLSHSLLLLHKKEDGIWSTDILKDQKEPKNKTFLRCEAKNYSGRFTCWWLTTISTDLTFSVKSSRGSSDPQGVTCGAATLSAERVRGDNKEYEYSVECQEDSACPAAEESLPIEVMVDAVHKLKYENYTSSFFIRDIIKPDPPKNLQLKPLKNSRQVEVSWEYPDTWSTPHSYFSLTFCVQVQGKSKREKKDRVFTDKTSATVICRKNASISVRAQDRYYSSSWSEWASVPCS
Description: PHA blast cells isolated as described above, were washed once and resuspended in binding buffer to a cell density of 2×10⁷ cells/ml. […] The cell pellet was examined for cell bound radioactivity using a gamma counter. […] Incubations were carried out in duplicate.

[2] = target: T1, recombinant human IL-12 (rhIL-12); experiment: cell-based or functional assay
[3] = target: T1, recombinant human IL-12 (rhIL-12); experiment: cell-based or functional assay; remark: listed apart in the source
[4] = target: T1, recombinant human IL-12 (rhIL-12); experiment: cell-based or functional assay; remark: listed apart in the source
[5] = target: T1, recombinant human IL-12 (rhIL-12); experiment: BIAcore SPR
[6] = target: T2, human interleukin 12 (p70 heterodimer of p35 and p40) (human, UniProt P29459 23-219; P29460 23-328); experiment: BIAcore
T2 construct: Recombinant human IL-12; p35 and p40 linked by a disulfide bridge; also called hIL-12; IL-12
T2 sequence (looked up) 1: T1 sequence (looked up) 1
T2 sequence (looked up) 2: T1 sequence (looked up) 2

[7] = target: T2, human interleukin 12 (p70 heterodimer …); experiment: BIAcore; remark: listed apart in the source
[8] = target: T2, human interleukin 12 (p70 heterodimer …); experiment: BIAcore; remark: listed apart in the source
[9] = target: T2, human interleukin 12 (p70 heterodimer …); experiment: BIAcore; remark: listed apart in the source
[10] = target: T2, human interleukin 12 (p70 heterodimer …); experiment: BIAcore; remark: listed apart in the source
[11] = target: T2, human interleukin 12 (p70 heterodimer …); experiment: BIAcore; remark: listed apart in the source
[12] = target: T2, human interleukin 12 (p70 heterodimer …); experiment: BIAcore; remark: listed apart in the source

- IC50 [1]: 0.016 nM
- IC50 (M), bioassay, Human IL-12 Purified [2]: 1.7e-10 M
- PHA assay IC50 [3]: 0.13 nM
- PHA assay IC50 (M) p70:p40 1:0 [4]: 1.8e-10 M
- PHA assay IC50 (M) p70:p40 1:50 [4]: 1.8e-10 M
- koff [5]: 0.00015 s⁻¹
B1: Y61 IgG (antibody, V domains shown)
VH: QVQLVQSGGGVVQPGRSLRLSCAASGFTFSSYGMHWVRQAPGKGLEWVAFIRYDGSNKYYADSVKGRFTISRDNSKNTLYLQMKSLRAEDTAVYYCKTHGSHDNWGQGTMVTVSS
VL: SYVLTQPPSVSGTPGQRVTISCSGGRSWIGSNTVKWYQQLPGTAPKLLIYGNDQRPSGVPDRFSGSKSGTSASLAITGVQAEDEADYYCQSYDRGTHPALLFGTGTKVTVLG
notes: whole IgG1; also called Y61-IgG1

- koff [6]: 0.000385 s⁻¹ and 0.00031 s⁻¹
- koff [7]: 0.000204 s⁻¹ and 0.000206 s⁻¹ and 0.000151 s⁻¹ and 0.000178 s⁻¹
- koff [8]: 0.000249 s⁻¹ and 0.000168 s⁻¹ and 0.000337 s⁻¹ and 0.000178 s⁻¹
- koff [9]: 0.000403 s⁻¹
- koff [10]: 0.000259 s⁻¹ and 0.000199 s⁻¹ and 0.000256 s⁻¹
- koff [11]: 0.000211 s⁻¹ and 0.000229 s⁻¹ and 0.000241 s⁻¹
- koff [12]: 0.000215 s⁻¹ and 0.000297 s⁻¹
B2: Y61 scFv (scFv, V domains shown)
VH: B1 VH
VL: B1 VL
notes: Single chain Fv; also called clone Y61

- IC50 [1]: 0.029 nM
- PHA assay IC50 [3]: 0.38 nM
- PHA assay IC50 (M) p70:p40 1:0 [4]: 2.5e-10 M
- PHA assay IC50 (M) p70:p40 1:50 [4]: 2.2e-10 M
- koff [5]: 0.000304 s⁻¹
B3: AO3 IgG1 (antibody, V domains shown)
VH: B1 VH
VL: B1 VL with W28N, A99L, L100T, L101M
notes: IgG1
